The values that follow come from US20180141988A1 (Pieris, published 2018).

For assay [1], the target named is T1, human GPC3 on stably transfected SK-HEP-1 cells (human, UniProt P51654 25-554).
T1 construct: whole, on cells; also called SK-HEP-1::human GPC3
Description: MSD-based (ECL) cell binding assay on immobilized SK-HEP-1 cells transfected with human GPC3; detection with rabbit anti-scaffold antibody and Sulfotag-labelled anti-rabbit antibody. On the procedure:
(§1) Binding of optimized lipocalin muteins of SEQ ID NOs: 5-16 to human, cynomolgus and mouse GPC3 compared to SEQ ID NOs: 3 and 4 was tested on SK-HEP-1 cells using an ECL format (FIG. 1). In this experiment, dilution series of lipocalin muteins were incubated on MSD plates coated with human, cynomolgus or mouse GPC3 overexpressing SK-HEP-1 cells.
(§2) SEQ ID NOs: 3, 4, 5, 7, 8, 9, 10, 12, 13, 14, 15 and 16 (using 1000 nM as starting concentration) were serially diluted at a 1:3 ratio down to the picomolar range in PBS/Casein. 20 μl of the dilution series were transferred to the SK-HEP-1-coated plates for 1 hour at room temperature.
(§3) To allow for detection and quantification of bound GPC3 specific lipocalin muteins, the residual supernatants were discarded and 20 μl of a mixture of rabbit anti scaffold antibody (2 μg/ml) and Sulfotag labelled anti rabbit antibody (5 μg/ml) prepared in PBS/casein was added to the wells and incubated for 1 h at RT. After washing, 35 μl surfactant-free reading buffer was added to each well and the ECL intensity of every well was read using a MSD reader.

Assay [2] addresses T1, human GPC3 on stably transfected …. Description: MSD-based (ECL) cell binding assay on transfected SK-HEP-1 cells. On the procedure:
as §1, §2, §3

For assay [3], the target named is T2, mouse GPC3 on stably transfected SK-HEP-1 cells (mouse, UniProt Q8CFZ4 25-553).
T2 construct: whole, on cells; also called SK-HEP-1::mouse GPC3; murine GPC3
T2 sequence (Q8CFZ4 25-553 limits assumed): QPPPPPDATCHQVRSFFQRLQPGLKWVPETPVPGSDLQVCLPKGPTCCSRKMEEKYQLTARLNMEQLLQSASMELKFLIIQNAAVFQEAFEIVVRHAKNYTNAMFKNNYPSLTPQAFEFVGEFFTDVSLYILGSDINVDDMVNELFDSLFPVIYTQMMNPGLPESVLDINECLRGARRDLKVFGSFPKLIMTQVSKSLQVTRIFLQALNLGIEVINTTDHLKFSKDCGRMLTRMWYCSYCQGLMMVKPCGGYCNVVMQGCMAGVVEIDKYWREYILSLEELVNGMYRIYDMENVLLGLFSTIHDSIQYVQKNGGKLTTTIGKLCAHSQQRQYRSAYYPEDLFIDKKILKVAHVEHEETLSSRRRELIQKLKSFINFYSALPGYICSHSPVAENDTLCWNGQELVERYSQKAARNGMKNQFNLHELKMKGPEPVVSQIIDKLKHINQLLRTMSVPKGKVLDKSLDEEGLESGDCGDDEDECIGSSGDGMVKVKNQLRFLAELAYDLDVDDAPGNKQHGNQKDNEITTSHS
Described as above. On the procedure:
as §1, §2, §3

Assay [4] has as its target T3, cynomolgus GPC3 on stably transfected SK-HEP-1 cells (cynomolgus, UniProt A0A2K5VK50 24-553).
T3 construct: whole, on cells; also called SK-HEP-1::cyno GPC3; SK-HEP-1::cynomolugus GPC3
The description is as above. As for the experimental part: as §1, §2, §3

The target in assay [5] is T4, Human GPC3 (2119-GP; R&D systems), biotinylated (human, UniProt P51654 25-559, biotinylated using standard NHS chemistry).
T4 construct: Bought protein; also called human Glypican-3
T4 sequence (P51654 25-559 limits assumed): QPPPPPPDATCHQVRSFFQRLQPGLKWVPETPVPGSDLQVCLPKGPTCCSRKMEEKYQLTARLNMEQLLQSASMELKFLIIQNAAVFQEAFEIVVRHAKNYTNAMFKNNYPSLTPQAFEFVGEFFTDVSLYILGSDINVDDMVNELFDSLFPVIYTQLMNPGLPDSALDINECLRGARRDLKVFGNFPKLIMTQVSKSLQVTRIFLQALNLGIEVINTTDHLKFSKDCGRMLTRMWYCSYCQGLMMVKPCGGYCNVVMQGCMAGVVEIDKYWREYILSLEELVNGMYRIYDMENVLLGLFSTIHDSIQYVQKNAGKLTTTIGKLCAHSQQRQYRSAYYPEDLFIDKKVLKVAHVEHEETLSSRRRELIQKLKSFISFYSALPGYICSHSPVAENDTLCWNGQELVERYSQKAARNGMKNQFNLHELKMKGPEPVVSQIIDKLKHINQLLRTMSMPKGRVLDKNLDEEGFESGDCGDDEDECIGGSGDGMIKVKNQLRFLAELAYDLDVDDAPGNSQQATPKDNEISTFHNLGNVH
Kind of assay: SPR (Biacore T200), biotinylated GPC3 captured on chip, mutein in flow. As for the experimental part: (§4) SPR analysis of the binding of the optimized Lcn2 muteins to human and mouse GPC3 was performed at 25° C. on a Biacore T200 instrument (GE Healthcare) using HBS-EP+ (1x; BR-1006-69; GE Healthcare) as running buffer. The Biotin CAPture Kit (GE Healthcare) was used to immobilize biotinylated GPC3 to a chip surface. Human GPC3 (2119-GP; R&D systems) and murine GPC3 (6938-GP; R&D systems) were biotinylated using standard NHS chemistry. Undiluted Biotin CAPture Reagent (streptavidin conjugated with ss-DNA oligo) was captured on a Sensor Chip CAP with the pre-immobilized complementary ss-DNA oligo. Thereafter, biotinylated human or murine GPC3 at 1 μg/ml was applied for 300 s at a flow rate of […].
(§5) Lcn2 muteins were applied in concentrations of 10 nM, 40 nM and 160 nM at a flow rate of 30 μL/min. The dilutions were injected with association times of 180 s and dissociation times of 600 s to obtain ka and kd information. Regeneration of the chip surface was achieved by injecting 6 M Guanidinium-HCl+0.25 M NaOH (120 s) with a flow rate of 10 μL/min. Injection of regeneration solutions was followed by an extra wash step with H₂O and a stabilization period of 120 s.
(§6) The data were double-referenced by subtraction of the corresponding signals measured for the control channel (loaded with Biotin CAPture reagent only) and by subtraction of buffer injections from the binding responses. Association rate constant ka and dissociation rate constant kd for the binding reaction were determined using Biacore T200 Evaluation Software V2.0 for data processing and kinetic fitting. The data were globally fit with 1:1 binding model.

The target in assay [6] is T5, murine GPC3 (6938-GP; R&D systems), biotinylated (murine, UniProt Q8CFZ4 25-558, limits assumed, biotinylated using standard NHS chemistry).
T5 construct: Bought protein; also called mouse GPC3
T5 sequence (Q8CFZ4 25-558 limits assumed): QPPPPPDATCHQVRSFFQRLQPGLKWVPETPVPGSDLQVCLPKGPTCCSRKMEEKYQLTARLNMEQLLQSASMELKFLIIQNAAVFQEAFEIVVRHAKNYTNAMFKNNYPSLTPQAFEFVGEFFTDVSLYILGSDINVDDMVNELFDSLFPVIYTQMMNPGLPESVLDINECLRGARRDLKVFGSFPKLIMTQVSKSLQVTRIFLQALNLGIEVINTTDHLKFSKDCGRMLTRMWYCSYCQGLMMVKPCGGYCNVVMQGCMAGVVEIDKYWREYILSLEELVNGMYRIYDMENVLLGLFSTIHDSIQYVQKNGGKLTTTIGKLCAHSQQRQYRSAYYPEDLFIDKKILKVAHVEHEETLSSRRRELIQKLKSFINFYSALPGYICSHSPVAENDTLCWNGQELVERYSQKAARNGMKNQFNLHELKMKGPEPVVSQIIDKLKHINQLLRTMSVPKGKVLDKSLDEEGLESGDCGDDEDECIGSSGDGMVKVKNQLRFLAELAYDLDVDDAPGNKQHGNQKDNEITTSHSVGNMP
The description is as above. As for the experimental part: as §4, §5, §6

T1 sequence (P51654 25-554 limits assumed): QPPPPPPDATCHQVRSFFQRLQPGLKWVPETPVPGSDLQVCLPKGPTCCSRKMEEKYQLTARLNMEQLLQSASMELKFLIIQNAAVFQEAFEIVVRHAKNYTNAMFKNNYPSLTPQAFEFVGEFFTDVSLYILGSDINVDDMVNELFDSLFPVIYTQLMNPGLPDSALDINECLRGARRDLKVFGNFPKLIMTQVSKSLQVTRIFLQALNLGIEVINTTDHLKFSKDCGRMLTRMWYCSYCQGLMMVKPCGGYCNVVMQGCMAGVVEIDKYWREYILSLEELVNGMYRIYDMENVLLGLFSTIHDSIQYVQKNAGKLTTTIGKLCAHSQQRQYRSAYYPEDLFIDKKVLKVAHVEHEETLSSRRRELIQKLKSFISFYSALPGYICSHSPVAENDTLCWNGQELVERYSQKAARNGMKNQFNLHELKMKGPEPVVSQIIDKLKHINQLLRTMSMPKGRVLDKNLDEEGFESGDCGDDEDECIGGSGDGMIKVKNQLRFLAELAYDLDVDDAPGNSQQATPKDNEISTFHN

B1: negative control lipocalin (SEQ ID NO: 2) (other)
chain: QDSTSDLIPAPPLSKVPLQQNFQDNQFHGKWYVVGLAGNAILREDKDPQKMYATIYELKEDKSYNVTSVLFRKKKCDYWIRTFVPGSQPGEFTLGNIKSYPGLTSYLVRVVSTNYNQHAMVFFKKVSQNREYFKITLYGRTKELTSELKENFIRFSKSLGLPENHIVFPVPIDQCIDG
As to B1, the binding result in assay [1] was “no binding (tested: 1000 nM)”.

B2: lipocalin mutein of SEQ ID NO: 13 (designed binder)
chain: QDSTSDLIPAPPLSKVPLQQNFQDNQFQGKWYVVGRAGNLGLREDKDPPKMWATIYELKEDKSYDVTNVRFARKKCMYSIGTFVPGSQPGEFTLGQIKSEPGSTANLVRVVSTNYNQHAMVFFKEVYQNREIFFITLYGRTKELTSELKENFIRFSKSLGLPENHIVFPVPIDQCIDGSAWSHPQFEK
notes: hNGAL (Lcn2) mutein; also called optimized GPC3 specific lipocalin mutein
The EC50 is the midpoint of the concentration-response curve. High values mean a less potent agent, low ones a more potent agent. The term Kd denotes the concentration at which binding is half-saturated. Read a low Kd as higher affinity. Usually koff stands for a measure of how fast the partners let go of each other. Higher therefore signals a short-lived complex. A word on the kon: it is the rate constant with which the complex forms. As to B2, the EC50 in assay [2] turned out to be 0.9 nM; in assay [3], 2.9 nM; in assay [4], 0.6 nM. Moreover, the Kd in assay [5] came out at 0.07 nM; in assay [6] it was 0.09 nM. For the same molecule, the koff was found to be 0.00018 s⁻¹ in assay [5] and 0.00024 s⁻¹ in assay [6]. In addition, the results for the kon in assay [5] and in assay [6] were 2.6e+06 M⁻¹ s⁻¹ and 2.7e+06 M⁻¹ s⁻¹, respectively.

B3: lipocalin mutein of SEQ ID NO: 15 (designed binder)
chain: QDSTSDLIPAPPLSKVPLQQNFQDNQFQGKWYVVGRAGNVGLREDKDPPKMRATIYELKEDKSYDVTGVRFGEKKIKYSIGTFVPGSQPGEFTLGQIKSQPGDTANLVRVVSTNYNQHAMVFFKEVYQNREIFFIILYGRTKELTSELKENFIRFSKSLGLPENHIVFPVPIDQAIDGSAWSHPQFEK
notes: as for B2
For B3, the EC50 in assay [2] was 1.6 nM; in assay [3] it was 4.8 nM; in assay [4], 1.6 nM. In addition, the Kd worked out at 0.035 nM in assay [5] and 0.072 nM in assay [6]. Further, the koff in assay [5] was determined as 4.9e-05 s⁻¹; in assay [6], 9.1e-05 s⁻¹. Also, the kon in assay [5] came out at 1.4e+06 M⁻¹ s⁻¹; in assay [6] it was 1.3e+06 M⁻¹ s⁻¹.

B4: lipocalin mutein of SEQ ID NO: 16 (designed binder)
chain: QDSTSDLIPAPPLSKVPLQQNFQDNQFQGKWYVVGRAGNVGLREDKDPPKMRATIYELKEDKSYDVTGVRFDSKKVTYSIGTFVPGSQPGEFTLGQIKSEPGNTANLVRVVSTNYNQHAMVFFKEVYQNREIFFIILYGRTKELTSELKENFIRFSKSLGLPENHIVFPVPIDQAIDGSAWSHPQFEK
notes: as for B2
For the molecule B4, the EC50 in assay [2] is 2.2 nM; in assay [3], 4.4 nM; in assay [4] it was 2.5 nM. The Kd is 0.171 nM in assay [5] and 0.311 nM in assay [6]. The off-rate (koff) in assay [5] was 0.00011 s⁻¹; in assay [6], 0.00019 s⁻¹. The kon in assay [5] is 670000 M⁻¹ s⁻¹; in assay [6] it was 610000 M⁻¹ s⁻¹.

B5: lipocalin mutein of SEQ ID NO: 14 (designed binder)
chain: QDSTSDLIPAPPLSKVPLQQNFQDNQFQGKWYVVGRAGNVGLREDKDPPKMWATIYELKEDKSYDVTNVRFAGKKVKYTIGTFVPGSQPGEFTLGQIKSEPGNTATLVRVVSTNYNQHAMVFFKEVYQNREIFFITLYGRTKELTSELKENFIRFSKSLGLPENHIVFPVPIDQAIDGSAWSHPQFEK
notes: as for B2
B5: the EC50 in assay [2] stood at 9.5 nM; in assay [3], 6.7 nM; in assay [4] it was 15.4 nM. The Kd in assay [5] came to 0.819 nM; in assay [6], 1.59 nM. Moreover, the koff was determined as 0.002 s⁻¹ in assay [5] and 0.0031 s⁻¹ in assay [6]. The kon in assay [5] was determined as 2.4e+06 M⁻¹ s⁻¹; in assay [6], 2e+06 M⁻¹ s⁻¹.
